What was measured:
Assay type in all cases: in vivo, Sprague-Dawley rats
Details in all cases: rat, 7.4 nmol
[1] = Conjunctival administration (lower eyelid) of 125I-IGF-I, tissue distribution by gamma counting
[2] = Transdermal administration (skin of the face) of 125I-IGF-I, tissue distribution by gamma counting
Procedure: Male Sprague-Dawley rats, 200-310 grams, are anesthetized with intraperitoneal pentobarbital (40 mg/kg). Drug delivery to the brain and spinal cord was assessed after transdermal administration of 7.4 nmol of ^125I-IGF-I in phosphate buffered saline, pH 7.4. Rats are placed in on their bellies with posterior elevated and mouth lowered. ^125I-IGF-I (7.4 nmol) placed on the skin of the rat's face. Rats subsequently underwent perfusion-fixation within minutes following the completion of ^125I-IGF-I administration. Perfusion-fixation was performed with 50-100 ml physiologic saline followed by 500 ml of fixative containing 1.25% glutaraldehyde and 1% paraformaldehyde in 0.1 M Sorenson's phosphate buffer, pH 7.4, prior to dissection and ^125I measurement by gamma counting. Areas dissected included selected brain regions as well as the cervical, thoracic and sacral regions of the spinal cord.

[3] = Sublingual administration of 125I-IGF-I, tissue distribution by gamma counting
Procedure: Male Sprague-Dawley rats, 200-310 grams, were anesthetized with intraperitoneal pentobarbital (40 mg/kg). Drug delivery to the brain and spinal cord was assessed after sublingual administration of 7.4 nmol of ^125I-IGF-I in phosphate buffered saline, pH 7.4. Rats were placed in on their bellies with posterior elevated and mouth lowered. ^125I-IGF-I (7.4 nmol) on a small strip of filter paper was placed under the tongue. Such methods for sublingual administration are known in the art. Purushotham et al. Am J. Physiol. 269,G867-G873 (1995). Rats subsequently underwent perfusion-fixation within minutes following the completion of ^125I-IGF-I administration. Perfusion-fixation was performed with 50-100 ml physiologic saline followed by 500 ml of fixative containing 1.25% glutaraldehyde and 1% paraformaldehyde in 0.1 M Sorenson's phosphate buffer, pH 7.4, prior to dissection and ^125I measurement by gamma counting. Areas dissected included selected brain regions as well as the cervical, thoracic and sacral regions of the spinal cord.

Question: Which “appearance of neurologic agent in the brain and spinal cord (radioactivity)” value (from here on “appearance of neurologic agent”) [1] does the source give for “125I-IGF-I: insulin-like growth factor I, a single chain peptide having 70 amino acids and a molecular weight of about 7,600 daltons, radioiodinated” here?
Answer: Its value is “Rapid appearance”.

Question: What about the “appearance of neurologic agent” value [2] of the same substance?
Answer: The value was “Rapid appearance”.

Question: And the “concentration in meninges or dura surrounding olfactory bulb, dorsal and ventral regions of the brain, trigeminal nerve and upper cervical spinal cord” value [3]?
Answer: Its value is “High concentrations”.

Question: And the “concentration in the trigeminal nerve itself” value [3]?
Answer: The value was “high concentrations”.

Question: And the “presence in the olfactory bulb, spinal cord and brain stem” value [3]?
Answer: Its value is “found”.

Question: What about the “concentration of neurologic agent in spinal cord regions (comparison)” value ([3]; cervical, thoracic, lumbar or sacral regions) of the same substance?
Answer: Its value is “higher in the cervical region of the spinal cord than in the thoracic region and higher in the thoracic region than in the lumbar or sacral regions”.

Question: And the “appearance of neurologic agent” value ([3]; perfusion-fixation within minutes after administration)?
Answer: The value was “Rapid appearance”.

— patent US7273618B2, “Method for administering agents to the central nervous system” (Chiron Corporation, priority 1998, dated 2007)
